Assay results from patent US20240101654A1.

Target: recombinant full-length human Tau (Tau-441, (2N4R)) (human) (UniProt P10636)
Test: indirect ELISA, plate coated with recombinant full-length human Tau at 3 µg/ml

EC50: 15 nM
B1: NI-502.4P3 (antibody, V domains shown)
VH: EVQLVQSGAEVKKPGESLKISCKVSGYDFSKYWIGWVRQMPGKGLEWMGLIYPGDSDTRYSPSLEGQVSISADKSISAAYLQFSSLKASDSAMYYCVRKGYSAYLGGWFDPWGQGTLVTVSS
VL: DIQLTQSPDSLAASLGERVTINCRSSQNIFYNSNNKNFLAWYQQKAGQSPKLLIYWASTRESGVPDRFSGSGSGTDFTLTISGLQAGDVAVYFCQQYFTDAPTFGGGTKVEIK
